Amyloid nucleation score data for 139 substances are collected here from the supplement of paper PMC12042874.

± gives the uncertainty stated by the source.

The data set in a line: amyloid nucleation score (Sup35N fusion, yeast selection) (log enrichment); library NNK2; higher = more nucleation; inactive = no reads after selection. Summed up: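 The nucleation score is the DiMSum log enrichment of output over input reads, centred on the mode score of non-aggregating sequences. Only sequences with 100 or more input reads were scored, using Illumina sequencing of input and output plasmid inserts. Psi-negative yeast expressing Sup35N fused to peptides of 20 random codons were induced 24 hours with 100 μM copper sulfate and grown 7 days at 30°C on medium lacking adenine and uracil.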
IVFYVEVVLMAECLADVKRV yielded an amyloid nucleation score of 5.56 ± 0.081.

Turning to IVGSDGGNIFTRLGCSAYRE, the amyloid nucleation score was -1.14 ± 0.35.

Substance IVIGRQCPTWFDVARYR yielded an amyloid nucleation score of 1.07 ± 0.34.

IVLNVYMRKTKQV registered an amyloid nucleation score of 0.078 ± 0.29.

As for IVLSGWLSSPSYASWDFCMR, the amyloid nucleation score was found to be 0.07 ± 0.77.

In turn, IVMSCSMNPIEAYEVLCEFF yielded an amyloid nucleation score of 0.382 ± 0.8.

Regarding IVNSNWGARRNKRAACQRES, the amyloid nucleation score was -0.317 ± 0.79.

Consider IVSAKCYRIMVDFYYGYFRL, for which the amyloid nucleation score came to 0.01 ± 0.65.

Take IVSAKDILRLIYSVCGAGLG: the amyloid nucleation score is -0.264 ± 0.48.

IVSIT registered an amyloid nucleation score of -0.271 ± 0.24.

Take IVSSSNFFKLMYCMFILRIS: the amyloid nucleation score was found to be 0.247 ± 1.

IVTAGWNLVFRKYADTRMVQ had an amyloid nucleation score of -0.337 ± 1.1.

Regarding IVVNNCSEVLEVGSDDAVKR, the amyloid nucleation score entry was “inactive”.

For IWGLIAYLDSFNNFALDRRK, the amyloid nucleation score was -1.03 ± 0.42.

In the case of IYACGYGLFYEYHTCSMCEI, the amyloid nucleation score was -0.977 ± 0.34.

As to IYALFLICLLHISVGLLMYR, the amyloid nucleation score is -0.179 ± 0.63.

Regarding IYCIFRTSKLMNGVMVHSRQ, the amyloid nucleation score is -0.454 ± 0.37.

Substance IYCLRAGTKHSSLLGAKEDK yielded an amyloid nucleation score of 0.594 ± 0.66.

For IYFWDTLTFLLSCLHAAGEN, the amyloid nucleation score was -1.87 ± 0.64.

IYLRESSVYILVFLRTFLVA gave an amyloid nucleation score of -0.542 ± 0.64.

IYLYPSYWCCFNRL had an amyloid nucleation score of 9.605 ± 0.059.

In the case of IYQIGDEQHDFLCPLKVFVN, the amyloid nucleation score was -0.336 ± 0.76.

For the substance IYRKSICYSFVWALFEVAEW, the amyloid nucleation score is -0.398 ± 0.35.

Consider IYRLDHRACP, for which the amyloid nucleation score was determined as 1.03 ± 0.38.

IYTSSGL: the amyloid nucleation score was -0.902 ± 0.54.

With IYWTNLSRLKTGANRLRDKK, the amyloid nucleation score was 0.177 ± 0.8.

The substance IYYGSRISPTWAGRLLCGER gave an amyloid nucleation score of -0.185 ± 0.44.

For the substance KACWCLYQGLTLSAQVQLWP, the amyloid nucleation score came to 1.26 ± 0.26.

KAGLWYNCPAMYDGYLRLKA showed an amyloid nucleation score of 1.98 ± 0.15.

As for KAGTGVVSANK, the amyloid nucleation score is 0.644 ± 0.39.

For KALFLYYSSVRITHNKLHAR, the amyloid nucleation score entry was “inactive”.

As for KAMYFYSRTVRPMMGSEEGS, the amyloid nucleation score is -0.072 ± 0.4.

As to KASMCGMKVWKFFQYLIKMV, the amyloid nucleation score was -1.1 ± 0.61.

For the substance KAVCGCLLLGFVNFLYPVEV, the amyloid nucleation score is -0.495 ± 0.21.

Take KCDLMRWSHFQ: the amyloid nucleation score worked out at 1.24 ± 0.48.

In turn, KCGSTFPLDLLYMSY yielded an amyloid nucleation score of -1.16 ± 0.49.

KCLCAGFLF came in with an amyloid nucleation score of -0.577 ± 0.38.

KCLSRNPHSIDFMRNARYKD showed an amyloid nucleation score of -0.92 ± 0.33.

KCNVMRQMRFMLPFTVIVVL had an amyloid nucleation score of 0.204 ± 0.31.

The substance KDAFT registered an amyloid nucleation score of -0.895 ± 0.49.

Substance KDCYNHSGRTGVVTDQKAQW gave an amyloid nucleation score of -0.118 ± 0.41.

KDTMK registered an amyloid nucleation score of -0.001 ± 0.24.

Turning to KERRSSVLVKNRVCSNGYF, the amyloid nucleation score result was “inactive”.

Substance KETTGWLRYIP registered an amyloid nucleation score of -0.56 ± 0.56.

The substance KFHHGFLGELPAPEYSSESA came in with an amyloid nucleation score of 0.25 ± 0.42.

KFNCLGLWDEYHNSM showed an amyloid nucleation score of 0.259 ± 0.43.

Consider KFTLCWRTRMAFMSPWLMRI, for which the amyloid nucleation score result was “inactive”.

As for KFYVCCATCGCDKINELPVT, the amyloid nucleation score was 8.088 ± 0.06.

Turning to KFYYVTGDATLNRDLWGSRA, the amyloid nucleation score was -0.79 ± 0.34.

As to KGCEIFLVLAMCDKCSGFL, the amyloid nucleation score was found to be 3.69 ± 0.12.

KGGLRISSLVTYM: the amyloid nucleation score was determined as 0.274 ± 1.1.

Consider KGGWNKGEPMFFLVMCMYVN, for which the amyloid nucleation score is 4.8 ± 0.054.

For KGIAVSVVPYSPVNTGDSAV, the amyloid nucleation score is 0.632 ± 0.48.

Substance KGNHRRVKTSIYNFFKVSNC displayed an amyloid nucleation score of 0.445 ± 0.29.

Substance KHFAIW had an amyloid nucleation score of -0.08 ± 1.

KHVLGWNISFFYFTFAIG: the amyloid nucleation score result is “inactive”.

With KICCIQVLLKYMGQWVQFR, the amyloid nucleation score is 0.053 ± 1.1.

KIEVRLRVTYGYSSLVQAVG yielded an amyloid nucleation score of -0.326 ± 1.

The substance KIFNSSSFFQL returned an amyloid nucleation score of 0.098 ± 0.65.

Regarding KIFTSCKELTVVGLVASYMN, the amyloid nucleation score is 0.782 ± 0.51.

On to KIHQRRVTSTANRCTILAAN, for which the amyloid nucleation score was -0.572 ± 0.76.

On to KINVSRFN, for which the amyloid nucleation score is -0.146 ± 0.33.

Substance KIRSLCPRRKVILSASGQQL had an amyloid nucleation score of 0.971 ± 0.17.

KKKYACRPAVRFLSIYCWFA: the amyloid nucleation score was 0.406 ± 0.4.

KKQSRIHLSTSKNRFTWNTW had an amyloid nucleation score of 0.007 ± 0.35.

For the substance KKTSEKLEGYNVNISVLRGY, the amyloid nucleation score stood at 2.59 ± 0.23.

KLAYIAMTVSITGFDPCAWD gave an amyloid nucleation score of 2.55 ± 0.068.

As for KLCLGIGCRRQDTQAFGPPL, the amyloid nucleation score is 5.65 ± 0.083.

Consider KLGDWARRPCSSGPARTYGR, for which the amyloid nucleation score came out at 0.843 ± 0.19.

KLKSDLMNRTVGDLPVRARP returned an amyloid nucleation score of 5.105 ± 0.048.

KLMWERTFVCSRKRFKTYYK showed an amyloid nucleation score of -0.359 ± 0.41.

For KLQTLLQWFGLY, the amyloid nucleation score was -0.392 ± 0.41.

On to KLSIWGLRGVVGAWRCHTGY, for which the amyloid nucleation score entry was “inactive”.

Turning to KLTLLKTL, the amyloid nucleation score entry is “inactive”.

As to KLVIKLRIIYYASV, the amyloid nucleation score was determined as 3.74 ± 0.084.

Take KLWETRACFVTCR: the amyloid nucleation score was 0.362 ± 0.4.

Substance KLYMCVIFYCLKGRLLVTYM returned an amyloid nucleation score of -1.18 ± 0.63.

In the case of KMDRDS, the amyloid nucleation score is -0.125 ± 0.38.

Regarding KMDSRSKTMRWYSCGSD, the amyloid nucleation score was 1.53 ± 0.26.

For the substance KMLSMDNYD, the amyloid nucleation score came out at 0.043 ± 1.

KMVYGLQGWLGLGSTVFWSP showed an amyloid nucleation score of 3.2 ± 0.13.

KNLMCQARNYSLIGALWSVS showed an amyloid nucleation score of -0.451 ± 0.76.

Take KNNIWVIYPFVNG: the amyloid nucleation score was found to be 6.434 ± 0.064.

Turning to KPNPFLVLLLRT, the amyloid nucleation score was -0.123 ± 0.46.

With KPRMWIYIFMAWEAYPAYI, the amyloid nucleation score result is “inactive”.

KRARR displayed an amyloid nucleation score of 0.356 ± 0.4.

Regarding KRDPLFRVLGT, the amyloid nucleation score was 0.071 ± 0.79.

The substance KRFIWCFRVTLFT returned an amyloid nucleation score of -0.633 ± 1.1.

The substance KRGCNQHFNSMRYLVMFLVS came in with an amyloid nucleation score of -0.915 ± 0.62.

KRMSPWAVFGC displayed an amyloid nucleation score of 0.872 ± 0.47.

Consider KRNMSCVLYIWDWHPASLLM, for which the amyloid nucleation score result was “inactive”.

The substance KRVFMWRSG returned an amyloid nucleation score of -0.424 ± 1.1.

The substance KRYGAVHDVCMRVSFNASQV displayed an amyloid nucleation score of 1.2 ± 0.32.

Take KRYWSPVFVQNYIDDFKVSD: the amyloid nucleation score is 0.453 ± 0.34.

For KSAIVRYQVGRVALEFFAAG, the amyloid nucleation score result was “inactive”.

As to KSCCDGRNYDKIPRVRSSRT, the amyloid nucleation score was determined as 0.206 ± 0.43.

Turning to KSCVGYLSAMESSVRL, the amyloid nucleation score was 0.045 ± 0.79.

The substance KSDPAVIPY returned an amyloid nucleation score of 0.713 ± 0.45.

KSFGVDYFFCVKLTSCGIQC: the amyloid nucleation score was 3.25 ± 0.12.

Regarding KSGMWAFYSEDKRTSGLLRW, the amyloid nucleation score turned out to be 0.626 ± 0.65.

Substance KSHLVF gave an amyloid nucleation score of -0.312 ± 0.65.

For the substance KSISVSLLVEGAVVSLSAYI, the amyloid nucleation score is 4.21 ± 0.11.

Substance KSMEGSNVMSRRYNWPWKDS displayed an amyloid nucleation score of 0.062 ± 0.63.

Consider KSVRGPCSYIFKYSCY, for which the amyloid nucleation score worked out at 2.59 ± 0.22.

The substance KSYLFESRKIGIVTNMGSYF yielded an amyloid nucleation score of -0.594 ± 1.1.

In turn, KTAFKSNTEITSPLVTVLAL showed an amyloid nucleation score of 0.555 ± 0.33.

KTCTLIGAMLIA registered an amyloid nucleation score of -0.385 ± 0.56.

KTCVPDYNNGWRFDFAYLD showed an amyloid nucleation score of -0.795 ± 0.45.

For the substance KTKLIRVFSTCRT, the amyloid nucleation score entry is “inactive”.

Turning to KTMNPYDFSLFIATIMKSLN, the amyloid nucleation score was -0.476 ± 1.1.

KTTLVHFFVAREYLWRRMWG came in with an amyloid nucleation score of 4.38 ± 0.084.

Regarding KTTSISLAVEGYLVGISLIP, the amyloid nucleation score worked out at 7.26 ± 0.078.

Substance KVDQGMQSSLRKCPFHQIKP had an amyloid nucleation score of 1.62 ± 0.32.

In turn, KVFIANTIGHWCMNQQIMML had an amyloid nucleation score of 0.217 ± 0.36.

The substance KVGKDTVYKGQSIQSVYLRC showed an amyloid nucleation score of -0.41 ± 0.49.

KVNKMPYSLFIYLKKLNFC showed an amyloid nucleation score of -0.518 ± 1.1.

KVPMICSMEWRPLVSSHCTR returned an amyloid nucleation score of -0.718 ± 0.76.

Consider KVRLSDIPSLAMICFKRDIN, for which the amyloid nucleation score entry was “inactive”.

Substance KVSGRYVEEYDHFPTDLSSL showed an amyloid nucleation score of -0.046 ± 0.54.

The substance KVSKTCY had an amyloid nucleation score of 0.497 ± 0.24.

As to KWKASVSFFNGHWDGLFANL, the amyloid nucleation score turned out to be 5.07 ± 0.056.

KWLND had an amyloid nucleation score of 0.205 ± 0.41.

In turn, KWNQKKNRSCFKAQRWCKLP gave an amyloid nucleation score of -0.637 ± 1.1.

KWSIRVGPQWV displayed an amyloid nucleation score of 3.43 ± 0.11.

Substance KWYICLKIIQWNCISDQC had an amyloid nucleation score of 5.38 ± 0.054.

In the case of KYCSINCYRTASFQTFHLCW, the amyloid nucleation score was found to be 6.231 ± 0.036.

Regarding KYFMVVLVNIIFLYPGL, the amyloid nucleation score entry was “inactive”.

As for KYFVINPLIPIGQMEDIKLL, the amyloid nucleation score is -0.156 ± 0.33.

KYMRLSLEDYNC returned an amyloid nucleation score of 0.533 ± 0.39.

With KYVCVI, the amyloid nucleation score was 0.809 ± 0.48.

In turn, LAFGHVSVS came in with an amyloid nucleation score of 0.086 ± 0.55.

LAGIRCVIDRLMLCRVDAIK displayed an amyloid nucleation score of -0.656 ± 0.28.

Regarding LAIVKGLVKSFLCYDFSGKV, the amyloid nucleation score entry was “inactive”.

Take LALRRDLFRVVLSNKTTSTR: the amyloid nucleation score turned out to be 1.07 ± 0.28.

LALTWKAWTTHSPRKLAAVF registered an amyloid nucleation score of 0.353 ± 0.31.

Take LAMMELYVSRETGLWYM: the amyloid nucleation score was -0.503 ± 0.32.

In turn, LAMTAAKIMDRFNGCSLKSF yielded an amyloid nucleation score of 0.648 ± 0.74.

As for LAPLDLSLVFWNTRNVLVL, the amyloid nucleation score is 0.746 ± 0.67.

In turn, LAQLQ registered an amyloid nucleation score of -0.504 ± 0.78.
